Source: US12508311B2, “Fusion protein, and preparation method and use thereof” (SUN YAT-SEN UNIVERSITY, priority 2021, dated 2025)
No end group written: not given here.

Assays:
[1] = tested on: normal human intestinal epithelial cells FHC; assay: Effect of gefitinib on normal cells (FHC control in CCK-8 / clone formation); assay type: cell-based; details: gefitinib 4 μM
Description: • (1) The colorectal cancer cells HT29 (KRas wt) and HCT116 (KRas G13D) in the logarithmic growth phase and the normal human intestinal epithelial cells FHC were digested with pancreatin and then prepared into a single cell suspension, and the cells were evenly inoculated in a 12-well plate by 500 cells per well. […] Cell culture solution was replaced every other 1-2 days, and the culture was stopped until cell clones (more than 50 cells were considered as one clone) were seen under a light microscope. • (3) After the supernatant of each group was discarded, the cells were washed twice with the PBS buffer solution, and dried in air. A proper amount of methanol stationary liquid was added into each well for cell fixation for 15 minutes, and residual stationary liquid in the well was washed off with PBS solution, and dried in air. A proper amount of crystal violet staining solution was added into each well for cell staining for 15 minutes, and residual staining solution in the well was washed off with PBS solution, and dried in air. The cell clones seen in the auxiliary wells of each group were counted under an inverted microscope and the number of the clones was calculated. • (4) Statistical analysis was carried out by using GraphPad Prism8 software, and one way anova was used to compare means of multiple groups. The difference was statistically significant when P<0.05.

[2] = In vivo Cy5 imaging, other tissues and organs; parameters: species or system mice; details: tail vein 60 μM, 100 μL; 2.5 hours
Description: (§1) • (1) 10 female Balb/c nude mice aged 4 weeks to 5 weeks (Guangdong Laboratory Animal Center) were purchased, and then 500,000 HT29cells and 500,000 HCT116 cells were subcutaneously injected into left and right sides of the mice respectively. One week later, the mice were divided into two groups, with five mice in each group, which were the experimental group and the control group respectively. Raising and experiment of the mice were both carried out in the Laboratory Animal Center of Sun Yat-sen University, and all the operations were in accordance with the management method of laboratory animals of Sun Yat-sen University and complied with the animal ethical rules. • (2) The TKD-Cy5 molecule and the Cy5 single molecule constructed above were injected into the mice by tail vein at a concentration of 60 μM and a volume of 100 μL, wherein the TKD-Cy5 injection group was the experimental group and the Cy5 single molecule injection group was the control group. • (3) After 2.5 hours of tail vein injection, the mice were anesthetized with isoflurane. Cy5 imaging detection was conducted by using IVIS Lumina (PerkinElmer), with a fluorescence detection form of fluorescence. • (4) Experimental results were shown in FIG. 15.

[3] = tested on: tumors derived from the KRas mutant-type HCT116 cells; assay: In vivo Cy5 imaging of tumor targeting, HCT116 tumors; parameters: species or system mice; details: tail vein 60 μM, 100 μL, 2.5 hours, compared with Cy5 single molecule
Description: as §1

[4] = tested on: tumors derived from the KRas wild-type cells HT29; assay: In vivo Cy5 imaging of tumor targeting, HT29 tumors; parameters: species or system mice; details: tail vein 60 μM, 100 μL, 2.5 hours, compared with Cy5 single molecule
Description: as §1

| Molecule | toxic and side effects on normal cells [1] | targeting of other tissues and organs (Cy5 imaging) [2] | aggregation in tumors (Cy5 imaging) [3] | aggregation in tumors (Cy5 imaging) [4] |
| --- | --- | --- | --- | --- |
| COc1cc2ncnc(Nc3ccc(F)c(Cl)c3)c2cc1OCCCN1CCOCC1 [gefitinib] | could not cause toxic and side effects on normal cells | – | – | – |
| TKD-Cy5: TKD molecules labeled with fluorescent dye Cy5 to form TKD-Cy5 covalent conjugates (TKDNNLLGRFELSG; also: Cy5 dye conjugate, site not given here; UniProt P0DMV8 450-463, looked up, fragment) | – | except bladder retention caused by metabolism in vivo as in the control group, TKD-Cy5 could not target other tissues and organs of the mice | could aggregate in tumors | could aggregate in tumors |
